# Laboratory results taken from paper PMC10359924, “Identification and characterisation of anti-IL-13 inhibitory single domain antibodies provides new insights into receptor selectivity and attractive opportunities for drug discovery” (Frontiers in Immunology, 2023).
# Changes are numbered by the printed parent chain.
# B1: VHH201 (VHH)
# VHH: EVQLVESGGGLVQAGESLTLSCAASGNSFDDYAVGWFRQAPGKEREGVGCINCETGVTTYYADSVKGRFTIHRDNAKNTVYLQMNSLKLEDTATYYCAADRWGTRLVAATYDYWGQGTQVTVSS
# notes: From a naive llama VHH phage library (UCB Biopharma); cloned into pET21a(+); not shown: His6, N-terminal, kept
# B2: VHH235 (VHH)
# VHH: EVQLVESGGGLVQPGGSLRLSCAASGFNFGNSAMSWFRQAPGKGLEWVSSINSGGGGSVYRASVKGRFTISRDDAKNTLFLQMNSLKPEDTAVYYCNADTYVPKDGGGWSPEYDIWGQGTLVTVSS
# notes: as for B1
# B3: VHH238 (VHH)
# VHH: EVQLVESGGGLVQPGGSLRLSCAASGFTISNHDMHWVRQAPGKGLEWVSSINPGGTYTEYRDSVKGRFTISRDNAKNTLYLQMNDLKPQDTAVYYCNAWGKGVEYDYWGQGTQVTVSS
# notes: as for B1
# B4: VHH245 (VHH)
# VHH: EVQLVESGGDLVQPGGSLRLSCSASGFTFDDYAMNWIRQAPGKGLEWVSSISWNGDSTYYAESMKGRFTISRDNAKNTLYLQMNSLQSEDTAVYYCNAQEYVGAHVYDYWGQGTQVTVSS
# notes: as for B1
# B5: VHH251 (VHH)
# VHH: EVQLVESGGGLVQPGGSLRLSCQASGFAFSSSTMYWVRQTPGKGLEWVSSITRGGTNTYYRDSVKGRFTISRDNNKNALYLQMNSLKPEDTAVYYCNADTYVPKDGGGWSPEYDIWGQGTLVTVSS
# notes: as for B1
# B6: VHH264 (VHH)
# VHH: B5 VHH with N74D, N75A, A78T, E112D, L121Q
# notes: as for B1
# B7: VHH281 (VHH)
# VHH: EVQLVESGGGLVQPGGSLRLSCAASGFTFGSYDMSWVRQAPGKGPEWVSYIDSGGRTTYYADSVKGRFTISRDNARNTVYLQMNSLKPEDTAVYYCAREAHGSGWSAANYYGMDYWGEGTQVTVSS
# notes: as for B1
# B8: VHH204 (VHH)
# VHH: EVQLVESGGGLVQAGGSLRLSCVASGRTISSYAMTWVRHAPGKGLEWVSTISTDASNTYYADSVKGRFTVSRDNAKNTVYLQMNSLKPEDTALYYCARVRLDGWEYDYWGQGTQVTVSS
# notes: From a naive llama VHH phage library (UCB Biopharma); cloned into pET21a(+); also called VH204; not shown: His6, N-terminal, kept
# B9: VHH209 (VHH)
# VHH: EVQLVESGGGLVQPGGSLRLSCAASGFTFSNYAMSWVRQAPGKGLEWVSSIESGSSRTIYRDSVKGRFTISRDNAKNTVYLQMNSLKPEDTAVYYCNADTYVPKDGSGWSPEYDVYGQGTQVTVSS
# notes: as for B1
# B10: VHH210 (VHH)
# VHH: EVQLVESGGGLVQPGGSLRLSCAASGFTFSSSWMYWVRQVPGKGLEWLSDVDPGGGNTYYADSVKGRFTISRDNAKKVLYLQMNSLKPEDTAVYYCNADTYVPKDGGGWSPEYDIWGQGTQVTVSS
# notes: as for B1
# B11: VHH214 (VHH)
# VHH: EVQLVESGGGLVQAGGSLRLSCAASGLLFDINDMGWYRQAPGKQREMVATIRSGGSTVYAEAVKGRFTISRDDAKHSVHLQMNNLKPEDSAVYYCHRTYNSYADWGQGTQVTVSS
# notes: as for B1
# B12: VHH227 (VHH)
# VHH: EVQLVESGGNLVQPGGSLRLSCAASGFTFSKYAMNWVRQAPGKGLEWVSAINSFAGSTSYADSVKGRFTISRDNAKNTLYLQMNSLKPEDTAVYYCKYRGYYGQGTQVTVSS
# notes: as for B1
# B13: VHH228 (VHH)
# VHH: B1 VHH with E1Q, A14P, E16G, A24V, N27F, S28R, V34I
# notes: as for B1
# B14: VHH229 (VHH)
# VHH: EVQLVESGGGLVQPGGSLRLSCAASGFTFRRYDMSWVRQVPGKGLEWVSDINSGGDSTNYADSVKGRFTISRDNNKNVLYLQMNSLKPEDTAVYYCNADTYVPKDGGGWSPEYDIWGQGTQVTVSS
# notes: as for B1
# B15: VHH234 (VHH)
# VHH: EVQLVESGGGLVQPGGSLRLSCAASGFTFSSYAMNWVRQAPGKGLEWVSAINSGGGTTDYADSVKGRFTISRDNAKNTLYLQMNSLKPEDTAVYYCARGKLGNGLEWGQGTQVTVSS
# notes: as for B1
# How the values were obtained:
# [1] = molecular target: human Interleukin-13 (IL-13) (1-113) (Homo sapiens); assay: cell-based or functional assay
# [2] = molecular target: T1, human Interleukin-13 (IL-13) (1-113) (Homo sapiens); assay: BLI; Octet QKe; N-terminally His-tagged VHH loaded on Ni-NTA biosensors (100 nM), titrated with untagged IL-13; 300 s association, 300 s dissociation; 25°C; HBS-EP+ (10 mM HEPES pH 7.4, 150 mM NaCl, 3 mM EDTA, 0.005% Tween-20); steady-state curves, one-site binding model; conditions: both partners purified
# T1 construct: source: 15N or 15N/13C labelled for NMR
# T1 sequence (chain, as listed by the source): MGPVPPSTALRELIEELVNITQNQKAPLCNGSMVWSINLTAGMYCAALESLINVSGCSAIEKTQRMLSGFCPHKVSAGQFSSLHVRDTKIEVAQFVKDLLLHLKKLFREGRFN
Binder,"IC50 of inhibition of IL-13 signalling (STAT6/SEAP reporter, HEK-Blue IL-4/IL-13 cells); blocks IL-13 signalling through IL-13Rα1 and IL-4Rα [1]",Kd [2]
B1,37.7 µM,0.9 µM
B2,74.3 µM,3.6 µM
B3,1.7 µM,0.2 µM
B4,3.7 µM,0.2 µM
B5,6.9 µM,2.2 µM
B6,14.5 µM,3.9 µM
B7,34.3 µM,0.4 µM
B8,26.2 µM,2.6 µM
B9,67.8 µM,2.2 µM
B10,0.2 µM,0.04 µM
B11,154 µM,4.8 µM
B12,63.5 µM,5.5 µM
B13,56 µM,0.9 µM
B14,11.4 µM,0.2 µM
B15,49.6 µM,4.1 µM
